Target: T1, hamster phospholipase B-like 2 (PLBL2) (hamster, UniProt G3I6T1 38-585, Used as two conjugates: one with biotin (Biotin-PLBL2) and one with digoxigenin (DIG-PLBL2). Conjugation sites are not stated. Natural mannose-6-phosphate glycans are not carried by the letters.)
T1 construct: Purified hamster PLBL2; also called PLB2; PLBD2
T1 sequence: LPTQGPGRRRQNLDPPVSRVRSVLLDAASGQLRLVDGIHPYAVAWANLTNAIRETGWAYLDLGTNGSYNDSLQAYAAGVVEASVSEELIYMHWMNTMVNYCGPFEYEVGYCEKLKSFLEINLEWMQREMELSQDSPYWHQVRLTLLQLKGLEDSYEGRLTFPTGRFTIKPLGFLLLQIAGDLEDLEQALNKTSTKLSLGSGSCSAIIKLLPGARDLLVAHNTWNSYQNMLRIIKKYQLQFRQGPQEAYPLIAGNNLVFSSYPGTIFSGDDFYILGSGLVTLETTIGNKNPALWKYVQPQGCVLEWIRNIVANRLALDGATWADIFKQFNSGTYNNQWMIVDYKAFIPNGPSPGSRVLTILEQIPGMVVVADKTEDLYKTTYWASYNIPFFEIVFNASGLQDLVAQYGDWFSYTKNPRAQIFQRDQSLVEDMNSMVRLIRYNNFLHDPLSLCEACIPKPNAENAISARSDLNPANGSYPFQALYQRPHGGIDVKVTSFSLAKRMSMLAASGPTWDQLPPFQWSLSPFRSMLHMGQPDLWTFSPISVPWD
Assay: bridging ELISA with Biotin-PLBL2 and DIG-PLBL2, drug tolerance experiment in serum
Experimental: The antibody bridging ELISA assay that was developed and validated to detect antibodies to hamster PLBL2 in human serum used two conjugated reagents to capture all isotypes of antibodies directed against hamster PLBL2: purified hamster PLBL2 conjugated to biotin (Biotin-PLBL2) and purified hamster PLBL2 conjugated to digoxigenin (DIG-PLBL2). Production and purification of hamster PLBL2 was carried out using standard methods known to one skilled in the art is also described in U.S. Provisional Application Nos. 61/877,503 and 61/991,228 and conjugation to biotin or DIG were carried out using standard methods known to one skilled in the art. In this semi-homogenous antibody bridging ELISA assay, 75 μL/well of conjugated solution in assay diluent (PBS/0.5% BSA/0.05% Polysorbate 20/0.05% ProClin 300, pH 7.4±0.1) containing 3 μg/mL of each Biotin-PLBL2 and DIG-PLBL2 were co-incubated overnight (16-24 hours) at ambient temperature with 75 μL/well of 1:20 diluted serum samples and controls in assay diluent in polypropylene micronic tubes (National Scientific Supply Co.; Claremont, C A). […] The plates were read at 450 nm for detection absorbance and 630 nm for reference absorbance.

B1: lebrikizumab (antibody, human IgG4 S228P, kappa, V domains shown)
VH: VTLRESGPALVKPTQTLTLTCTVSGFSLSAYSVNWIRQPPGKALEWLAMIWGDGKIVYNSALKSRLTISKDTSKNQVVLTMTNMDPVDTATYYCAGDGYYPYAMDNWGQGSLVTVSS
VL: DIVMTQSPDSLSVSLGERATINCRASKSVDSYGNSFMHWYQQKPGQPPKLLIYLASNLESGVPDRFSGSGSGTDFTLTISSLQAEDVAVYYCQQNNEDPRTFGGGTKVEIKR
notes: Humanized IgG4; also called anti-IL13 MAb; anti-IL13 monoclonal antibody
B1: no binding (tested: 50 µg/mL).

— patent publication US20160319012A1 (Genentech, published 2016)
